What was measured:
[1] = molecular target: T1, KO_CRD3 (human OX40 aa 108 to 146 replaced with the mouse counterparts) (human; mouse, UniProt P43489 29-277); assay: flow cytometry, transfected 293F cells, column KO_CRD3
T1 construct: Chimeric variant with a transmembrane domain, transient on 293F cells
T1 chain: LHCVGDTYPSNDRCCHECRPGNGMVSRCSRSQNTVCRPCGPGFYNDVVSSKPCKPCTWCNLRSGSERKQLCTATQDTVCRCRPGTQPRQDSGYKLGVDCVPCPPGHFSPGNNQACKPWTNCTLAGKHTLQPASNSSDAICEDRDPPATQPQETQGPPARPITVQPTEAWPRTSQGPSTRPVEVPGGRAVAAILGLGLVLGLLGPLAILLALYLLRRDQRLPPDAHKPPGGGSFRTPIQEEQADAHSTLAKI

Human OX40 [2] = molecular target: T2, Human OX40 (human, UniProt P43489 29-277); assay: cell-based or functional assay
T2 sequence: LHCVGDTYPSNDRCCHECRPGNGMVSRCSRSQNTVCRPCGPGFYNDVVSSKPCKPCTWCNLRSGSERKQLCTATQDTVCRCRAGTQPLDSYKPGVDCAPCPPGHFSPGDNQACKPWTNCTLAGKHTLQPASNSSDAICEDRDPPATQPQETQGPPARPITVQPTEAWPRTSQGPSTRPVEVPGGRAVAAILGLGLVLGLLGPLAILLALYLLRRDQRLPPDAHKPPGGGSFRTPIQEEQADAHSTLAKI

Human OX40 [3] = molecular target: T2, Human OX40; assay: flow cytometry on activated primary human CD4+ T cells; 50% receptor occupancy calculated from Kd
Description: (§1) OX40mAb24 (10 μg/mL) or 9B12 (10 μg/mL) was diluted over a 17 point 2-fold dilution series. OX40mAb24 was added to 100,000 cells (activated primary CD4⁺ T cells or human OX40-overexpressing Jurkat NFkB-luciferase clone 64 cells) per well and incubated for one hour at 4° C. For background binding subtraction, cells were incubated in the presence of secondary antibody alone. […] Following secondary antibody incubation, cells were washed and suspended in 100 μL FACS buffer for flow cytometry analysis on a BD LSRII flow cytometer as described below.

[4] = molecular target: T3, Recombinant human TNFRSF5 (CD40) (human, UniProt P25942 21-193); assay: ELISA, plate coated with a dilution series of the recombinant TNFRSF protein [panel B]
T3 construct: Plate-adsorbed antigen of the ELISA
Description: (§2) An eight point, two-fold dilution series of each recombinant human TNFRSF protein was prepared after dilution of stock proteins to 5 μg/mL in PBS. Subsequently, 50 μL of each antigen dilution was transferred in duplicate to wells of a Nunc 96-well MaxiSorp flat bottom plate, and incubated overnight at 4° C. to adsorb proteins to the plate. Afterwards, plates were washed three times with PBS in a BioTek® plate washer to remove unbound protein. Anti OX40 mAb29, 9B12, and control antibodies were diluted in PBS to a final concentration of 10 μg/mL, and 50 μL of mAb were added to each well and incubated at room temperature for one hour to bind mAb to plate-bound protein. Thereafter, wells were washed with PBS/Tween-20 0.1% (volume/volume) using a BioTek® plate washer. HRP conjugated goat anti-human or goat anti-mouse secondary antibodies at 10 μg/mL was added to each well and incubated at room temperature for 1 hour. After three washes in PBS/Tween-20 0.1%, 50 μL of TMB substrate was added to each well and incubated at room temperature for 5 minutes to develop the colorimetric product. Reactions were stopped by adding 50 μL of 0.5 molar H₂SO₄ to wells, and plates read immediately at 450 nm using an Envision C plate reader for detection of the colorimetric product.

[5] = molecular target: T4, Recombinant human TNFRSF9 (CD137) (human, UniProt Q07011 24-186, limits assumed); assay: as above
T4 construct: Plate-adsorbed antigen of the ELISA
Description: as §2

[6] = molecular target: T5, Recombinant human TNFRSF16 (NGFR) (human, UniProt P08138 29-250); assay: as above
T5 construct: Plate-adsorbed antigen of the ELISA
T5 sequence (looked up): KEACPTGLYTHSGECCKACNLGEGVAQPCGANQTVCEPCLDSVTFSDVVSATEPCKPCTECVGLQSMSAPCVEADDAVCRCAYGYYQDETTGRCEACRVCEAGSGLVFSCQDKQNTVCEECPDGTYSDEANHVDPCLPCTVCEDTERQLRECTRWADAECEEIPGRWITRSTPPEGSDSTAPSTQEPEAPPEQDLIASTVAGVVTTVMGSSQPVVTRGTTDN
Description: as §2

Cynomolgus monkey OX40 = molecular target: T6, Cynomolgus monkey OX40 (cynomolgus monkey); assay: flow cytometry, equilibrium binding to activated primary cynomolgus CD4+ T cells; mean of 2 experiments (StdErr)
T6 construct: also called cyno OX40
Description: Cyno CD4⁺ T cell isolation was performed with a Miltenyi non-human primate kit according to manufacturer's instructions, then CD4⁺ T cells counted on a ViCell counter and suspended at 1×10⁶ per mL in complete medium as described above.
Cyno CD4⁺ T cells (1×10⁶ per mL in complete medium) were incubated for 48 hours in a T75 cell culture flask with 2 μg/mL PHA-L and 20 IU/mL IL-2, to activate T cells and induce OX40 expression. Activated CD4⁺ T cells were removed from the flask and 100,000 cells were transferred to each well of a non-tissue culture treated 96-well round-bottom plate for binding assays and washed with 200 μL FACS buffer. Binding was performed with 10 μg/mL OX40mAb24 or 9B12 serially diluted 4-fold in FACS buffer for an 11-point data curve, or both R347 human IgG1 or mouse IgG1 clone MOPC-21 (negative controls) serially diluted 6-fold for a 3 point data curve. OX40mAb24, 9B12 or control protein was added to CD4⁺ T cells and incubated. […] Following secondary antibody incubation, cells were processed for flow cytometry as described in Section 2.3.

Human OX40 [7] = molecular target: T2, Human OX40; assay: flow cytometry, equilibrium binding to activated primary human CD4+ T cells; apparent Kd, mean of 6 donors (StdErr)
Description: as §1

T3 sequence (P25942 21-193 limits assumed): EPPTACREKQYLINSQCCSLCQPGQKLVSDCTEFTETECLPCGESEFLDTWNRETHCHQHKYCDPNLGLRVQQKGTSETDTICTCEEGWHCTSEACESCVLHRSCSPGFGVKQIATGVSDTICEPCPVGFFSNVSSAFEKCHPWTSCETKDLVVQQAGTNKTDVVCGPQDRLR

binding result [1]: no binding | EC50, IL5 release, donor 651 (Human OX40 [2]): 1090 pM | EC50 (Human OX40 [3]): 0.669 nM | binding result [4]: no binding | binding result [5]: no binding | binding result [6]: no binding | Kd (Cynomolgus monkey OX40): 1.09 nM | Kd (Human OX40 [7]): 0.669 nM
B1: 9B12 (antibody, mouse IgG1, V domains shown)
VH: EVQLQESGPSLVKPSQTLSLTCSVTGDSFTSGYWNWIRKFPGNRLEYMGYISYNGITYHNPSLKSRISITRDTSKNHYYLQLNSVTTEDTATYFCARYRYDYDGGHAMDYWGQGTLVTVSS
VL: DIQMTQTTSSLSASLGDRVTISCRASQDISNYLNWYQQKPDGTVKLLIYYTSKLHSGVPSRFSGSGSRTDYSLTITDLDQEDIATYFCQQGSALPWTFGQGTKVEIKR
notes: mouse IgG1 kappa; also called murine mAb 9B12; mouse anti-human OX40 IgG1κ monoclonal antibody
